The text below walks through data of PMC4107134.

Assay [1] has as its target integrin αIIbΔ996β3 (αIIb tail truncated after GFFKR) (UniProt P05106). Briefly: pull-down.
The target in assay [2] is integrin αIIbβ3, wild type (UniProt P05106). In words: pull-down.

Broadly, the Kd is the free concentration of one partner at which half of the binding sites on the other are occupied at equilibrium, for simple one-to-one binding. Lower therefore signals a tighter complex.

Take “talin head domain (THD, talin residues 1-433), purified (from UniProt P26039 1-433) (domain or fragment)”: the Kd came to 206 nM in assay [1] and 214 nM in assay [2].
